The values that follow come from article PMC3711430.

Test [1] deals with Xenopus FANCI (Xenopus laevis (endogenous in egg extracts)). The test is described as follows: co-depletion by immunodepletion; DNA-free Xenopus S-phase egg extracts; FANCD2 or FANCI antibody coupled to Sepharose 4B beads, 60 min on ice, one to two rounds; depleted extracts analysed by immunoblot.
Test [2] deals with Xenopus FANCD2 (Xenopus laevis (endogenous in egg extracts)). Described as above.

Xenopus FANCD2 (natural protein) yielded a percent co-depleted in test [1] of 80%.

As for Xenopus FANCI (natural protein), the percent co-depleted in test [2] turned out to be 80%.
